Assay results taken from the RNAGym collection of RNA variant scans (doi:10.7554/elife.80360).

B1: Hairpin Ribozyme (parent)
chain: GUCCUCUUUCACGUGCGCGUGAAAGAGAGAAGUGAACCAGAGAAACACACGUUGUGGUAUAUUACCUGGUA

Variants of: B1
Assay: self-cleavage, relative activity (ratio to wild type); higher = more cleavage; co-transcriptional

Variant	self-cleavage
A41U G42A	0.321
G42C U52A	0.256
A44G A64G	0.0828
A44C A45C	0
A41U G54A	1.03
A43U U62G	0.0478
A43U U62C	0.107
A43U U62A	0.227
A43G A47U	0.131
A43U C50A	0.0923
A44G A47G	0.17
A41C U62C	0.329
A43C A61G	0.147
A43C C50U	0.13
G42U C65A	0.142
G42U U55C	0.155
G42U U55G	0.165
A44C U52A	0.0299
A44C U52C	0.213
A41C C65U	0.513
A41C C65A	0.782

Variant	self-cleavage
A41C C65G	0.247
A45C C66U	0
A45C C66A	0.187
A45C C66G	0.319
G42U A61G	0.167
A41U A43G	0.0919
A41U A43C	0.231
A41G C65G	1.13
A44G U55C	0.0374
A44G U55A	0.0483
A43U C65U	0.144
A43U C65G	0.155
G42A A44C	0.27
G42A A44U	0.207
G42A A44G	0.201
G42A U62G	0.154
A44C U67C	0.099
A44C U67G	0.094
A43G U62C	0.162
A43G U62G	0.0971
A43G U62A	0.125

Variant	self-cleavage
A44U	0.141
A44C	0.148
A44G	0.146
A44U C50G	0.156
A44U C50A	0.172
A45C A71U	0.184
A45C A71C	0.453
G42U U63C	0.213
A43C G57U	0.149
G42U U53G	0.198
A43C A64C	0.0846
A43C A64G	0.185
A44G C65A	0.0664
A44G C65U	0.0694
A43C U67G	0.13
A41U C50A	0.673
A43U A61U	0.174
G42A G68A	0.14
G42A G68C	0.15
G42A C50A	0.186
A44U G69C	0.159

Variant	self-cleavage
A43U U70A	0.145
A41U U53A	1.28
A41C U60G	0.998
A43C A49G	0
A43C A49C	0.199
A41C U52C	0.79
A43C A47G	0.0478
A44U U53C	0.0977
A41U G51A	1.11
A44U U52A	0.237
A41G A59G	0.17
A41G C48A	0.0982
A41U U67C	0.456
A43U C46U	0.187
A44G G56U	0.226
G42A A45C	0.0962
A41G A45G	0.225
A41G A45U	0.105
A41G A45C	0.101
G42U U52A	0.379
G42U U52C	0.4
